The source of these data is article PMC5518878, “Molecular assembly of rhodopsin with G protein-coupled receptor kinases” (Cell Research, 2017).

The target in assay [1] is T1, β2-adrenergic receptor fused to a TEV cleavage site and tTA (human, UniProt P07550 1-413).
T1 construct: human β2-adrenergic receptor; also called β2AR; source: HTL cells, transfected (pcDNA3), in cells; not shown: TEV cleavage site (ENLYFQS), C-terminal, kept
The experiment in a line: Tango assay (TEV protease proximity reporter); HTL cells co-transfected with receptor-TEV cleavage site-tTA and GRK-TEV protease fusions; luciferase reporter; vehicle or ligand overnight (ATR 10 μM for rhodopsin; paroxetine; DHE 0.1 μM, GR 127935 1 μM; SX 1 μM, ICI 118 551 1 μM); DNA amounts adjusted for similar expression. The note with it: partners not purified. In general terms: Reporter assays use an easily measured gene product as a stand-in for the process of interest.

In assay [2] the target is T2, serotonin receptor 5-HT1B fused to a TEV cleavage site and tTA (human, UniProt P28222 1-390).
T2 construct: human serotonin receptor 5-HT1B; also called HTR1b; source: HTL cells, transfected (pcDNA3), in cells; not shown: TEV cleavage site (ENLYFQS), C-terminal, kept
The assay is described as above. As to conditions: partners not purified.

Assay [3] has as its target T3, Arrestin-biotin-MBP (human wild-type visual arrestin), purified (human, UniProt P10523 1-405, biotin on the tag).
T3 construct: human visual arrestin (arrestin1); also called WT arrestin; arrestin1; source: Sf9 insect cells, purified on amylose beads; not shown: biotin tag, C-terminal, kept
The experiment in a line: AlphaScreen or HTRF; biotinylated WT arrestin and His8-tagged 4M Rho, with 80 nM purified GRK1 and 40 μM ATP added (indirect kinase assay). As to conditions: both partners purified. On the technique in general: Alpha assays give light when donor and acceptor beads are brought close together.

B1: bovine GRK2 fused to the N-terminus of TEV protease (enzyme, UniProt P21146 1-689, looked up)
chain: MADLEAVLADVSYLMAMEKSKATPAARASKKILLPEPSIRSVMQKYLEDRGEVTFEKIFSQKLGYLLFRDFCLKHLEEAKPLVEFYEEIKKYEKLETEEERLVCSREIFDTYIMKELLACSHPFSKSAIEHVQGHLVKKQVPPDLFQPYIEEICQNLRGDVFQKFIESDKFTRFCQWKNVELNIHLTMNDFSVHRIIGRGGFGEVYGCRKADTGKMYAMKCLDKKRIKMKQGETLALNERIMLSLVSTGDCPFIVCMSYAFHTPDKLSFILDLMNGGDLHYHLSQHGVFSEADMRFYAAEIILGLEHMHNRFVVYRDLKPANILLDEHGHVRISDLGLACDFSKKKPHASVGTHGYMAPEVLQKGVAYDSSADWFSLGCMLFKLLRGHSPFRQHKTKDKHEIDRMTLTMAVELPDSFSPELRSLLEGLLQRDVNRRLGCLGRGAQEVKESPFFRSLDWQMVFLQKYPPPLIPPRGEVNAADAFDIGSFDEEDTKGIKLLDSDQELYRNFPLTISERWQQEVAETVFDTINAETDRLEARKKTKNKQLGHEEDYALGKDCIMHGYMSKMGNPFLTQWQRRYFYLFPNRLEWRGEGEAPQSLLTMEEIQSVEETQIKERKCLLLKIRGGKQFVLQCDSDPELVQWKKELRDAYREAQQLVQRVPKMKNKPRSPVVELSKVPLIQRGSANGL
notes: bovine GRK2; source: HTL cells, transfected (pcDNA3), in cells; not shown: HA or FLAG, C-terminal, kept; TEV protease, C-terminal, kept
B1: the “fold induction by the agonist salmeterol xinafoate over the vehicle control” value in assay [1] is 2 fold. The “fold induction by the agonist dihydroergotamine over the vehicle control” value in assay [2] was determined as 2.5 fold.

B2: H8-MBP-Rho (4M) phosphorylated by purified GRK1 with ATP (receptor, human, UniProt P08100 1-348, looked up)
chain: MCGTEGPNFYVPFSNATGVVRSPFEYPQYYLAEPWQFSMLAAYMFLLIVLGFPINFLTLYVTVQHKKLRTPLNYILLNLAVADLFMVLGGFTSTLYTSLHGYFVFGPTGCNLQGFFATLGGEIALWSLVVLAIERYVVVCKPMSNFRFGENHAIMGVAFTWVMALACAAPPLAGWSRYIPEGLQCSCGIDYYTLKPEVNNESFVIYMFVVHFTIPMIIIFFCYGQLVFTVKEAAAQQQESATTQKAEKEVTRMVIIYVIAFLICWVPYASVAFYIFTHQGSCFGPIFMTIPAFFAKSAAIYNPVIYIMMNKQFRNCMLTTICCGKNPLGDDEASATVSKTETSQVAPA
modifications: phosphorylated by GRK1; sites not stated
notes: human rhodopsin; also called GRK-phosphorylated Rho; source: HEK293S cells, purified on amylose beads; phosphorylated in the assay mixture by 80 nM purified GRK1 with 40 μM ATP; not shown: His8, N-terminal, kept
Take B2: the binding result in assay [3] was “binds”.
